Laboratory results from publication PMC6851107, “Characterization of the dynamics and the conformational entropy in the binding between TAZ1 and CTAD-HIF-1α” (Scientific Reports, 2019).

Target: T1, transcriptional adapter zinc binding 1 (TAZ1) domain of CREB binding protein (CBP) (mouse (numbering; the same sequence in …, UniProt P45481 340-439)
T1 construct: Isotope-labelled (15N; or 2H, 13C, 15N; or 10% 13C) or unlabelled, depending on the NMR sample
Test: NMR relaxation (15N backbone and 2H methyl side chain) of the complex; 1.3 mM labelled TAZ1 with 1.8 mM unlabelled CTAD-HIF-1α, and 1.3 mM labelled CTAD-HIF-1α with 1.8 mM unlabelled TAZ1; 15 mM HEPES pH 6.8, 50 mM NaCl, 3 mM TCEP, 0.01% NaN3, 7% D2O; 303 K
Conditions: both partners purified

T1 sequence (P45481 340-439): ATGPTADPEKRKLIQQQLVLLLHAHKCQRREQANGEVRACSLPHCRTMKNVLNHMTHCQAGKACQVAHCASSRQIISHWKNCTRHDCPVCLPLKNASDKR

binding result: binds
B1: C-terminal transactivation domain of hypoxia inducible factor subunit 1α (CTAD-HIF-1α) (domain or fragment, UniProt Q16665 776-826, looked up)
chain: SDLACRLLGQSMDESGLPQLTSYDCEVNAPIQGSRNLLQGEELLRALDQVN
notes: Unlabelled or 2H, 13C, 15N-labelled, depending on the NMR sample
